Publication PMC5409194 (Journal of Visualized Experiments : JoVE, 2017)

Biological target: the molecule itself
Test: […]

B1: C-terminal fragment (residue 323-785) of vaccinia virus protein D5 (domain or fragment)
chain: GNKLFNIAQRILDTNSVLLTERGDYIVWINNSWKFNSEEPLITKLILSIRHQLPKEYSSELLCPRKRKTVEANIRDMLVDSVETDTYPDKLPFKNGVLDLVDGMFYSGDDAKKYTCTVSTGFKFDDTKFVEDSPEMEELMNIINDIQPLTDENKKNRELYEKTLSSCLCGATKGCLTFFFGETATGKSTTKRLLKSAIGDLFVETGQTILTDVLDKGPNPFIANMHLKRSVFCSELPDFACSGSKKIRSDNIKKLTEPCVIGRPCFSNKINNRNHATIIIDTNYKPVFDRIDNALMRRIAVVRFRTHFSQPSGREAAENNDAYDKVKLLDEGLDGKIQNNRYRFAFLYLLVKWYKKYHVPIMKLYPTPEEIPDFAFYLKIGTLLVSSSVKHIPLMTDLSKKGYILYDNVVTLPLTTFQQKISKYFNSRLFGHDIESFINRHKKFANVSDEYLQYIFIEDISSP
For B1, the “stoichiometry N” value was 6.
